The source of these data is patent US20230192845A1 (BLINK BIOMEDICAL, published 2023).

Assay [1] deals with T1, human CD96 short isoform v2 expressed on CHO cells (human, UniProt P40200 22-585).
T1 construct: also called hCD96v2; CD96v2; not shown: C-terminal HA-tag
T1 sequence: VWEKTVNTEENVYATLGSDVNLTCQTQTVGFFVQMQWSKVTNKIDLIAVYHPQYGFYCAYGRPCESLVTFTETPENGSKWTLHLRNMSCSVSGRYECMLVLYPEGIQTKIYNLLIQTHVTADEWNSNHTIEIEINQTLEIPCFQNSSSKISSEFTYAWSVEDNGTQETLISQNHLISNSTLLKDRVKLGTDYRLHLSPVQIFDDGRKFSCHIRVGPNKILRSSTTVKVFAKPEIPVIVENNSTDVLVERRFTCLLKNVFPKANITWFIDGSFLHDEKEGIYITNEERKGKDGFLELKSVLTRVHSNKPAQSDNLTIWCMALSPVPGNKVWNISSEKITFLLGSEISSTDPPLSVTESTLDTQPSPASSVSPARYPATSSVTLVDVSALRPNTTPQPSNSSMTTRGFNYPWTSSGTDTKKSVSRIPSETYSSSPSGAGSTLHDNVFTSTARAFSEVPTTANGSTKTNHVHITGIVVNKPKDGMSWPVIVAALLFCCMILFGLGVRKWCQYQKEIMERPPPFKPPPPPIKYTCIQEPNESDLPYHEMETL
In words: FCM, inhibition of hCD155-Fc binding to hCD96v2-CHO cells. The method, then: All candidates except BL006-2-19 that bound very weakly on hCD96v2 by FCM were tested for their capacity to inhibit the binding of human CD155 to hCD96v2 stably expressed on CHO cells. Human CD96-transfected CHO cells (3×10⁵ cells/well of 96-well plate) were incubated at +4° C. for 30 minutes with serial dilutions of anti-CD96 antibodies or isotype control antibody (in mIgG2a or mIgG2aD265A format) in the presence of 4 μg/mL of biotinylated hCD155-Fc (produced and biotinylated at BliNK).
% inhibition=(1−(MFI_wAb&CD155−MFI_CHO)/(MFI_wCD155−MFI_CHO))×100, where MFI_wAb&CD155 is the Mean Intensity Fluorescence (MFI) obtained with the hCD96-CHO cells incubated with the tested antibody and hCD155-hFc; MFI_CHO is the MFI obtained in the absence of hCD155 and mAbs; and MFI_wCD155 is the fluorescence with hCD155 but without pre-incubation with antibody (0% CD155 binding inhibition). The % of inhibition was plotted against antibody concentration and the IC50 values were calculated by using a nonlinear regression analysis model of the GraphPad Prism software.

In assay [2] the target is T1, human CD96 short isoform v2 expressed …. In words: FCM on hCD96v2-CHO cells. As for the experimental part:
FIG. 6: Binding profiles of anti-hCD96 antibodies on human CD96-transfected CHO cells (hCD96v2, short isoform). CHO cells expressing hCD96v2 were incubated with serial dilution of the indicated mIgG1 or mIgG2a anti-CD96 or isotype control antibodies. […] The results are expressed as the difference of mean fluorescence intensity (delta MFI) between cells stained with antibodies and cells without antibodies. Dose response curves were obtained from GraphPad prism software using a non-linear regression fit with a variable slope model (4 parameters). To simplify the reading, results from the various anti-hCD96 candidates are shown on 4 different panels.
The capacity of the identified mouse anti-CD96 antibodies to recognize the cell membrane expressed human CD96 was further analyzed by flow cytometry (FCM) by using CHO cells stably transfected with the CD96 short isoform v2 (CD96v2; Genbank accession number NM_005816, flanked in C-terminus with HA-tag) (SEQ ID NO: 268).
Mouse anti-CD96 antibodies and isotype control antibodies were incubated at various concentrations from 10 μg/mL to 4.6 ng/mL with CHO cells expressing human CD96 at +4° C. for 30 minutes. […] The differences between the mean fluorescence intensity (MFI) obtained for each of the antibody concentration and the intensity obtained in absence of primary antibody (delta-MFI), were calculated and plotted against the concentrations of antibodies.

The target of assay [3] is T2, mouse CD96 expressed on CHO cells (mouse, UniProt Q3U0X8 22-602).
T2 construct: whole, on cells; also called mCD96
T2 sequence (looked up): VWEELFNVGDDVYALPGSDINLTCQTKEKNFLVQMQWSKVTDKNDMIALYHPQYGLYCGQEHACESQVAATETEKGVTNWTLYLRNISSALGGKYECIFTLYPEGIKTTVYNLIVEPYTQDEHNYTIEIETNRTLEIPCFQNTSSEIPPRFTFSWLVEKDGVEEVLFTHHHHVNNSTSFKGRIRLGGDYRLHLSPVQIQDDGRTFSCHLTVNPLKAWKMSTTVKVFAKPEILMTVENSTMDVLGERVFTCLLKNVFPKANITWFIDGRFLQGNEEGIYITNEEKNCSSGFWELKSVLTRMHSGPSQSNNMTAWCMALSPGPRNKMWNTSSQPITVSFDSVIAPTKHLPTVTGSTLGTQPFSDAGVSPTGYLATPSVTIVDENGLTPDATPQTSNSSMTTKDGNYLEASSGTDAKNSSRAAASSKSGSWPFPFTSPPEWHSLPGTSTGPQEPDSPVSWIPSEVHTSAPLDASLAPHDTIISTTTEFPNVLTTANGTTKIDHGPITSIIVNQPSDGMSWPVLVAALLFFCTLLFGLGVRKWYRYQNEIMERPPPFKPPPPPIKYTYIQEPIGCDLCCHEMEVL
In words: FCM on CHO cells expressing mouse CD96. The source says: (§1) The capacity of the identified mouse anti-human CD96 antibodies to recognize the CD96 protein from other species was further analyzed by flow cytometry by using CHO cells expressing the mouse or the rhesus CD96. The expression of the species-specific CD96 on CHO cell surface was confirmed by using staining with appropriate anti-CD96 antibodies and flow cytometry on non-fixed cells. The rat anti-mCD96 antibody clone #630612 (R&D Systems) and the candidate BL006-9-1 (positive by ELISA on rhesus CD96) were used to confirm the expression of rhesus CD96, while the clone 6A6 (rat IgG2a, e-Bioscience) was used to verify the expression of mouse CD96.
(§2) Mouse anti-CD96 antibodies and isotype control antibodies were incubated at 10 or 1 μg/mL with CHO cells expressing different CD96 species at +4° C. for 30 minutes.

Assay [4] deals with T3, rhesus CD96 transiently expressed on CHO cells (rhesus, UniProt P40200 22-585 (human entry)).
T3 construct: also called rhesus CD96, short isoform
T3 chain: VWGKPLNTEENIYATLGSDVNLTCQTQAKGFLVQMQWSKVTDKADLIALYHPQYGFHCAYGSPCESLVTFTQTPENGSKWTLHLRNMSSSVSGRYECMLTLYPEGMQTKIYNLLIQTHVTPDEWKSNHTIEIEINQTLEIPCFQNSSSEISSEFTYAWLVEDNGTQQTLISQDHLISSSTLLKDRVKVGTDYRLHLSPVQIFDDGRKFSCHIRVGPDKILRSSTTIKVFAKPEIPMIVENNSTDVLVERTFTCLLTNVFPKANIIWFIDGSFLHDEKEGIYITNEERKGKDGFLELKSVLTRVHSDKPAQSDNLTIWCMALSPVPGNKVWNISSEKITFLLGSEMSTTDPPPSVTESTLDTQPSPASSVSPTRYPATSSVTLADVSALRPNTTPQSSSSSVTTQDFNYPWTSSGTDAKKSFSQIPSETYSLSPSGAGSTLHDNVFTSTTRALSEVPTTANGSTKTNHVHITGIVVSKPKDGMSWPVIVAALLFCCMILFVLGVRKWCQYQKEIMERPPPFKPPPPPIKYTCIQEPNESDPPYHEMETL
Nature of the assay: flow cytometry on CHO cells transiently expressing rhesus CD96; antibody at 1 (thin line) and 10 µg/ml (thick dashed line), filled grey = isotype control. The method, then: FIG. 7: Binding profiles of anti-CD96 antibodies on CHO cells transfected with rhesus CD96. Anti-CD96 antibodies or the corresponding isotype control mAbs were tested for their capacity to recognize rhesus CD96 transiently expressed on CHO cells by flow cytometry. Each histogram represents the overlay of the fluorescence intensity obtained for each antibody tested at 1 (black line) and 10 μg/ml (thick dashed black line) and compared to the fluorescence obtained with an isotypic control (filled grey histogram).
as §1, §2

Substitutions are numbered along the chain they refer to. Names and notes keep the numbering of the source.

B1: BL006-9-15G1-15K5 (antibody, V domains shown)
VH: QAYLQQSGAELVRPGASVKMSCKASGYTFTSYNMHWVKQTPRQGLEWIGAVIPGNGDSFYNQKFKGKATLTVDKSSSTAYMQLSSLTSEDSAVYFCGRSSSGCIAYWGQGTLVTVSA
VL: DIVLTQSPASLAVSLGQRATISCRVSGSVDYDGDSYMNWYQQKPGQPPKLLIYAASNLESGIPARFSGSGSETDFTLNIHPVEEEDAATYYCLQSNEAPWTFGGGTKVEIK
notes: Recombinant mIgG2a/kappa (also made as mIgG2a-D265A); also called candidate NO 12
As for B1, the “Maximal Inhibition Capacity (%)” value in assay [1] was less than 5%. Besides, in assay [2], the EC50 was 14.3 nM and the “Maximum binding (delta MFI)” value was 42000 delta MFI.

B2: BL006-19-134G5-134K4 (antibody, V domains shown)
VH: QVQLQQPGAELVKPGASVKLSCKASDYTFTTYWMHWVKQRPGQGLEWIGMIHPNSDTTLYNEKFRSQATLTVDKSSSTAYIQLSRLTSEDSAVYYCVVTGTNFDYWGQGTTLAVSS
VL: QVVLTQSPAIMSASPGEKVTMTCSATSSVSYMYWYQQKPGSSPKPWIYRTSNLASGVPVRFSGSGSGTSYSLTISSMEAEDAATYYCQQWSSNPLTFGGGTKLELK
notes: Recombinant mIgG2a/kappa (also made as mIgG2a-D265A); also called BL006-19-134G5-134K4 #2; candidate NO 7
Regarding B2, the binding result in assay [3] was “no binding (tested: 1 and 10 µg/mL)”; in assay [4], “no binding (tested: 10 µg/ml)”.

B3: BL006-19-363G1-363K1 (antibody, V domains shown)
VH: B2 VH with D26G, M34I, H52L, D56G, L59I, T78A, I81M, V97A, A113T
VL: B2 VL with V2I, T26S, S66F, S76N, G99T
notes: Recombinant mIgG2a/kappa (also made as mIgG2a-D265A); also called candidate NO 18
Regarding B3, the binding result in assay [3] is “no binding (tested: 1 and 10 µg/mL)”; in assay [4] it was “no binding (tested: 10 µg/ml)”.

B4: BL006-4-52G6-52K7 (antibody, V domains shown)
VH: QVQLQQPGAELVKPGASVKLSCKASGYSFTSYWMHWVKQRPGQGLEWIGQIDPSDSYTNYNQKFKGKATLTVDKSSSTAYMQLSSLTSEDSAVYYCASGNYGPYLGNYFDYWGQGTTLTVPS
VL: DIVMSQSPSSLVVSVGEKVTMSCKSSQSLLHSTNQKNYLAWYQQKPGQSPKLLIYWASTRESGVPDRFTGSGSGTDFTLTISSVKAEDLVVYYCQQYYNYPYTFGGGTKLEIK
notes: Recombinant mIgG2a/kappa (also made as mIgG2a-D265A); also called BL006-4-52G6-52K7 #4; candidate NO 2
As to B4, the binding result in assay [3] was “no binding (tested: 1 and 10 µg/mL)”. In addition, the binding result in assay [4] is reported as “binds”. Also, the “Maximal Inhibition Capacity (%)” value in assay [1] was less than 5%. Further, in assay [2], the EC50 worked out at 13.4 nM and the “Maximum binding (delta MFI)” value is 493000 delta MFI.

B5: BL006-4-20G5-20K5 (antibody, V domains shown)
VH: EVQLAESGGDLVTPGGSLKLSCAASGFTFSSYGMSWVRQTPDKRLEWVATITHGGSYIYYPDSVKGRFTLSRDNAKNTLYLQMSSLKSEDTAMYYCIRHADYARFAYWGQGTLVTVSA
VL: DIQMTQTTSSLSASLGDRVTISCRPSQDISNYLNWYQQKPDGTVKLLIYYTSRLHSGVPSRFSGSGSGTDYSLTISNLEQEDIATYFCQQGNTLPWTFGGGTKLEIK
notes: Recombinant mIgG2a/kappa (also made as mIgG2a-D265A); also called BL006-4-20G5-20K5 #1; candidate NO 1
In the case of B5, the binding result in assay [3] is “no binding (tested: 1 and 10 µg/mL)”; in assay [4], “no binding (tested: 10 µg/ml)”.

B6: BL006-4-31G1-31K3 (antibody, V domains shown)
VH: QVQLQQSGPELVKPGASVKISCKTSGFTFTDYYINWVKQRPGQGLEWIGWIFPGSGSSFYSEIFKGQATLTVDKSSSTAYMLLSSLTSEDSAVYFCARRNYYGYGAYAMDYWGQGTSVTVSS
VL: DIQMNQSPSSLSASLGDTITITCRASQSINFWLSWYQQKPGNIPKLLIYKASNLHTGVPSRFSGSGSGTDFTLTISSLQPEDIATYYCLQGQSYPLTFGGGTKLEIK
notes: Recombinant mIgG2a/kappa (also made as mIgG2a-D265A); also called candidate NO 10
Turning to B6, in assay [3], the binding result is “no binding (tested: 1 and 10 µg/mL)”. For the same molecule, the binding result in assay [4] is listed as “binds”. In assay [1], the IC50 came out at 16.8 nM and the “Maximal Inhibition Capacity (%)” value stood at 100%. Besides, in assay [2], the EC50 was 4.82 nM and the “Maximum binding (delta MFI)” value was determined as 723000 delta MFI.

B7: BL006-19-352G9-352K8 (antibody, V domains shown)
VH: QVQLQQPGAELVKPGASVKLSCKASGYTFTSYWMHWVKQRPGQGLEWIGMIHPNGDITDYNEKFKSKATLAVDESSSTAFMQLNSLTSEDSAFYYCARASYYGSLYWGQGTTLTVSS
VL: DIVMTQSQKFMSTSVGDRVSVTCKASQNVGIAVAWYQKKPGQSPKTLIYSASTRYTGVPDRFTGSGSGTDFTLTINDVQSEDLADYFCQQYGSSPLTFGAGTKLELK
notes: Recombinant mIgG2a/kappa (also made as mIgG2a-D265A); also called candidate NO 17
In the case of B7, the binding result is “no binding (tested: 1 and 10 µg/mL)” in assay [3]; “binds” in assay [4].

B8: BL006-19-370G9-370K16 (antibody, V domains shown)
VH: QVQLQQSGAELGRPGTSVKMSCKAAGYTFTNYWIGWVKQRPGHGLEWIGDIYPGGGYTNYNEKFKGKATLTADTSSSTAYIQLSSLTSEDSAIYYCARSGYYDGSPLAMDYWGQGTSVTVS
VL: QIVLTQSPTIMSASPGEKVTMTCSASSSVSYMHWYQQKSGTSPKRWIYDTSKLASGVPARFSGSGSGTSYSLTISSMEAEDAATYYCQQWSSNPPTFGSGTKLEIK
notes: Recombinant mIgG2a/kappa (also made as mIgG2a-D265A); also called candidate NO 19
In the case of B8, the binding result in assay [3] was “no binding (tested: 1 and 10 µg/mL)”; in assay [4] it was “no binding (tested: 10 µg/ml)”.
